Results taken from publication PMC9943658.

How the values were obtained:
[1] = target: His-T7-hnRNP C1 ΔRRM (UniProt P07910); test: SEC
[2] = target: His-T7-hnRNP C1 ΔACIDIC (UniProt P07910); test: SEC

Row | stoichiometry N [1] | stoichiometry N [2] | Substance
1 | 4 | – | His-T7-hnRNP C1 ΔRRM (from UniProt P07910-2 1-293) (natural protein)
2 | – | 2 | His-T7-hnRNP C1 ΔACIDIC (from UniProt P07910-2 1-293) (natural protein)
